# Test results from IntAct's records for PubMed 31515488.
# B1: Serine/threonine-protein phosphatase 2A activator (Homo sapiens), Q15257 (parent)
# chain: MAEGERQPPPDSSEEAPPATQNFIIPKKEIHTVPDMGKWKRSQAYADYIGFILTLNEGVKGKKLTFEYRVSEMWNEVHEEKEQAAKQSVSCDECIPLPRAGHCAPSEAIEKLVALLNTLDRWIDETPPVDQPSRFGNKAYRTWYAKLDEEAENLVATVVPTHLAAAVPEVAVYLKESVGNSTRIDYGTGHEAAFAAFLCCLCKIGVLRVDDQIAIVFKVFNRYLEVMRKLQKTYRMEPAGSQGVWGLDDFQFLPFIWGSSQLIDHPYLEPRHFVDEKAVNENHKDYMFLECILFITEMKTGPFAEHSNQLWNISAVPSWSKVNQGLIRMYKAECLEKFPVIQHFKFGSLLPIHPVTSG
# B2: Carboxy-terminal domain RNA polymerase II polypeptide A small phosphatase 1 (Homo sapiens), Q9GZU7 (parent)
# chain: MDSSAVITQISKEEARGPLRGKGDQKSAASQKPRSRGILHSLFCCVCRDDGEALPAHSGAPLLVEENGAIPKQTPVQYLLPEAKAQDSDKICVVIDLDETLVHSSFKPVNNADFIIPVEIDGVVHQVYVLKRPHVDEFLQRMGELFECVLFTASLAKYADPVADLLDKWGAFRARLFRESCVFHRGNYVKDLSRLGRDLRRVLILDNSPASYVFHPDNAVPVASWFDNMSDTELHDLLPFFEQLSRVDDVYSVLRQPRPGS
# partner: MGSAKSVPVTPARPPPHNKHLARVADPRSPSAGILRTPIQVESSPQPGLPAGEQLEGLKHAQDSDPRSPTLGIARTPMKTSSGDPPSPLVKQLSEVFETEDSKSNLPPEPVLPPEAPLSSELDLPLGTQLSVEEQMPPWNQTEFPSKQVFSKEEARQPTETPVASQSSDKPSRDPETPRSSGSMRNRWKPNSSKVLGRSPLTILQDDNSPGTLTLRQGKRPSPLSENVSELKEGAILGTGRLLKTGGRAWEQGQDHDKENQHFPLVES
# B3: Syntaxin-12 (Homo sapiens), Q86Y82 (parent)
# chain: MSYGPLDMYRNPGPSGPQLRDFSSIIQTCSGNIQRISQATAQIKNLMSQLGTKQDSSKLQENLQQLQHSTNQLAKETNELLKELGSLPLPLSTSEQRQQRLQKERLMNDFSAALNNFQAVQRRVSEKEKESIARARAGSRLSAEERQREEQLVSFDSHEEWNQMQSQEDEVAITEQDLELIKERETAIRQLEADILDVNQIFKDLAMMIHDQGDLIDSIEANVESSEVHVERATEQLQRAAYYQKKSRKKMCILVLVLSVIILILGLIIWLVYKTK
# B4: Tyrosine aminotransferase (Homo sapiens), P17735 (parent)
# chain: MDPYMIQMSSKGNLPSILDVHVNVGGRSSVPGKMKGRKARWSVRPSDMAKKTFNPIRAIVDNMKVKPNPNKTMISLSIGDPTVFGNLPTDPEVTQAMKDALDSGKYNGYAPSIGFLSSREEIASYYHCPEAPLEAKDVILTSGCSQAIDLCLAVLANPGQNILVPRPGFSLYKTLAESMGIEVKLYNLLPEKSWEIDLKQLEYLIDEKTACLIVNNPSNPCGSVFSKRHLQKILAVAARQCVPILADEIYGDMVFSDCKYEPLATLSTDVPILSCGGLAKRWLVPGWRLGWILIHDRRDIFGNEIRDGLVKLSQRILGPCTIVQGALKSILCRTPGEFYHNTLSFLKSNADLCYGALAAIPGLRPVRPSGAMYLMVGIEMEHFPEFENDVEFTERLVAEQSVHCLPATCFEYPNFIRVVITVPEVMMLEACSRIQEFCEQHYHCAEGSQEECDK
# B5: Transcription factor 12 (Homo sapiens), Q99081-3 (parent)
# chain: MNPQQQRMAAIGTDKELSDLLDFSAMFSPPVNSGKTRPTTLGSSQFSGSGIDERGGTTSWGTSGQPSPSYDSSRGFTDSPHYSDHLNDSRLGAHEGLSPTPFMNSNLMGKTSERGSFSLYSRDTGLPGCQSSLLRQDLGLGSPAQLSSSGKPGTAYYSFSATSSRRRPLHDSAALDPLQAKKVRKVPPGLPSSVYAPSPNSDDFNRESPSYPSPKPPTSMFASTFFMQDGTHNSSDLWSSSNGMSQPGFGGILGTSTSHMSQSSSYGNLHSHDRLSYPPHSVSPTDINTSLPPMSSFHRGSTSSSPYVAASHTPPINGSDSILGTRGNAAGSSQTGDALGKALASIYSPDHTSSSFPSNPSTPVGSPSPLTGTSQWPRPGGQAPSSPSYENSLHSLKNRVEQQLHEHLQDAMSFLKDVCEQSRMEDRLDRLDDAIHVLRNHAVGPSTSLPAGHSDIHSLLGPSHNAPIGSLNSNYGGSSLVASSRSASMVGTHREDSVSLNGNHSVLSSTVTTSSTDLNHKTQENYRGGLQSQSGTVVTTEIKTENKEKDENLHEPPSSDDMKSDDESSQKDIKVSSRGRTSSTNEDEDLNPEQKIEREKERRMANNARERLRVRDINEAFKELGRMCQLHLKSEKPQTKLLILHQAVAVILSLEQQVRERNLNPKAACLKRREEEKVSAVSAEPPTTLPGTHPGLSETTNPMGHM
# partner: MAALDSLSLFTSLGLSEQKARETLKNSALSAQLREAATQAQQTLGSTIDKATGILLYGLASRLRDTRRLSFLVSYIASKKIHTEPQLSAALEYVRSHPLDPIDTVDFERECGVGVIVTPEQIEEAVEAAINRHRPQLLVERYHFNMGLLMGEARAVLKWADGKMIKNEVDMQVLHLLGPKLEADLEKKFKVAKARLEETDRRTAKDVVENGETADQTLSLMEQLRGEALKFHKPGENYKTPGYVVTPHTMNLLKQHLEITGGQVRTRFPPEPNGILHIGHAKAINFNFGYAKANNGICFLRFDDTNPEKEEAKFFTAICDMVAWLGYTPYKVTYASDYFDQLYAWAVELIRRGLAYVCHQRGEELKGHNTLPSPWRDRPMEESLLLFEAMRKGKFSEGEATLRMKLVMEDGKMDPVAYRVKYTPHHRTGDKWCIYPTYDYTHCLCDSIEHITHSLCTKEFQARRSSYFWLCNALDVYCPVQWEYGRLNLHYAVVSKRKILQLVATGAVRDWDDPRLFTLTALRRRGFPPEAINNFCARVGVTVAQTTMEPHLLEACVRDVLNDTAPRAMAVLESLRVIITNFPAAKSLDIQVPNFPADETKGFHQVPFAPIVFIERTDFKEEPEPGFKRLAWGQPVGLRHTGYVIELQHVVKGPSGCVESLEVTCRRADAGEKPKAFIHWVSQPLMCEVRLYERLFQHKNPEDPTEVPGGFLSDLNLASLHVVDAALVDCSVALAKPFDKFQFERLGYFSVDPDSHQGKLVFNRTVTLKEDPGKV
# Variants of: B1
# Conditions: with amot_human AMOT
row,Variant,effect of a mutation on the interaction
1,K218T,with no effect

# Variants of: B2
# Conditions: with cdca3_human CDCA3, Q99618
row,Variant,effect of a mutation on the interaction
1,H57D,with no effect
2,A56T,with no effect

# Variants of: B3
# Conditions: with dtx2_human DTX2, Q86UW9
# dtx2_human DTX2, Q86UW9, sequence (Q86UW9 whole entry): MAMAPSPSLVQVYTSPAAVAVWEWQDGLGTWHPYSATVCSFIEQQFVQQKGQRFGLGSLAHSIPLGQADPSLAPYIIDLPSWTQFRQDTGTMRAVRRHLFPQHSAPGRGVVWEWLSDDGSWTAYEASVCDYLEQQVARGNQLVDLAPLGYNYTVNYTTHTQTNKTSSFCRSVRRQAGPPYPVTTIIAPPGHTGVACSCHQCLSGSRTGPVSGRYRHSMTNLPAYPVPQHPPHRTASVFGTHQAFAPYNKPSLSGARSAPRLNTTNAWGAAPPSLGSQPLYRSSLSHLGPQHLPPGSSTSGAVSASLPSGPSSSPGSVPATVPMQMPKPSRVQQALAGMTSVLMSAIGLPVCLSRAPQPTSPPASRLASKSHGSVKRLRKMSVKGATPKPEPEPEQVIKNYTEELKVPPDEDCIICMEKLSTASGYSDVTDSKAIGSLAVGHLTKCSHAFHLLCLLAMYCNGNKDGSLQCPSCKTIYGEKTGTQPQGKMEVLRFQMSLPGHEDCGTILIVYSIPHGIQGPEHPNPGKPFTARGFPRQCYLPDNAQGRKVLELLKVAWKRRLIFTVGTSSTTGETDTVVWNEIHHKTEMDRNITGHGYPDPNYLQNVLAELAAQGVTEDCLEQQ
row,Variant,effect of a mutation on the interaction
1,P88R,with no effect

# Variants of: B3
# Conditions: with stx4_human STX4, Q12846
# stx4_human STX4, Q12846, sequence (Q12846 whole entry): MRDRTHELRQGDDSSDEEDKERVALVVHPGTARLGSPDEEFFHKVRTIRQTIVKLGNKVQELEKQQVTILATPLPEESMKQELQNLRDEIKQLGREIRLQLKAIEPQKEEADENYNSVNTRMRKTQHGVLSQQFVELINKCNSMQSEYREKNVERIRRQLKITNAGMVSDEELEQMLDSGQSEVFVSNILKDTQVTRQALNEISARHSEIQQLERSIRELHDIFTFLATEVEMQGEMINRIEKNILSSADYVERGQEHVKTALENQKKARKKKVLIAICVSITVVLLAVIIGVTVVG
row,Variant,effect of a mutation on the interaction
1,P88R,with no effect

# Variants of: B4
# Conditions: with ube3a_human UBE3A
row,Variant,effect of a mutation on the interaction
1,R119W,disrupting interaction strength

# Variants of: B5
# Conditions: with syq_human QARS1, P47897
row,Variant,effect of a mutation on the interaction
1,Y120C,with no effect
2,A482V,with no effect
3,S446F,with no effect
4,R74G,with no effect
5,A155T,with no effect
6,N606H,with no effect
